Assay results taken from IntAct's records for PubMed 35512704.

B1: Speckle-type POZ protein (Homo sapiens), O43791 (parent)
chain: MSRVPSPPPPAEMSSGPVAESWCYTQIKVVKFSYMWTINNFSFCREEMGEVIKSSTFSSGANDKLKWCLRVNPKGLDEESKDYLSLYLLLVSCPKSEVRAKFKFSILNAKGEETKAMESQRAYRFVQGKDWGFKKFIRRDFLLDEANGLLPDDKLTLFCEVSVVQDSVNISGQNTMNMVKVPECRLADELGGLWENSRFTDCCLCVAGQEFQAHKAILAARSPVFSAMFEHEMEESKKNRVEINDVEPEVFKEMMCFIYTGKAPNLDKMADDLLAAADKYALERLKVMCEDALCSNLSVENAAEILILADLHSADQLKTQAVDFINYHASDVLETSGWKSMVVSHPHLVAEAYRSLASAQCPFLGPPRKRLKQS

Variants of: B1
Details: with ezh1_human EZH1, Q92800
Chain of ezh1_human EZH1, Q92800 (Q92800 whole entry): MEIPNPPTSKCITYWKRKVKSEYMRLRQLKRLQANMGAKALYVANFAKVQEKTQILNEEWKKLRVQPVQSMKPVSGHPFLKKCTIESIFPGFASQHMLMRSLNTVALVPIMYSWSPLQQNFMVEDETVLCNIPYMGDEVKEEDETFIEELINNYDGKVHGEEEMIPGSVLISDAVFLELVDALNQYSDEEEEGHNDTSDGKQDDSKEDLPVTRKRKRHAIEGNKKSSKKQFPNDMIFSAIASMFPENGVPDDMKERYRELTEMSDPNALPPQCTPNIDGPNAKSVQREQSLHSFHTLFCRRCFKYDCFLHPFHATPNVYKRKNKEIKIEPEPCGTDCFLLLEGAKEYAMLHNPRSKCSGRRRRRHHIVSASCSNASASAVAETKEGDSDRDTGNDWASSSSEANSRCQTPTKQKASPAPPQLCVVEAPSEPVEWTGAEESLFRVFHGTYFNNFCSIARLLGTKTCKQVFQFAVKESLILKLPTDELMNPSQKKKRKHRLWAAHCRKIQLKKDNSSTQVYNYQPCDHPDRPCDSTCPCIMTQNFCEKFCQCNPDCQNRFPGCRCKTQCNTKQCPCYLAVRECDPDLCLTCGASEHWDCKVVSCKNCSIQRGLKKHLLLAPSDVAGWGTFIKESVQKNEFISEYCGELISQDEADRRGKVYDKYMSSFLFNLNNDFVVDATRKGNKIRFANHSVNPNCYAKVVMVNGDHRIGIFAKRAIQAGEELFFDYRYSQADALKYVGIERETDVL

effect of a mutation on the interaction | Variant
with no effect | MSRVPSPPPPAEMSSGPVAESWCYTQIKVVKFSYMWTINNFSFCREEMGEVIKSSTFSSGANDKLKWCLRVNPKGLDEESKDYLSLCLLLVSCPKSEVRAKFKFSILNAKGEETKAMESQRAYRFVQGKDWGFKKFIRRDFLLDEANGLLPDDKLTLFCEVSVVQDSVNISGQNTMNMVKVPECRLADELGGLWENSRFTDCCLCVAGQEFQAHKAILAARSPVFSAMFEHEMEESKKNRVEINDVEPEVFKEMMCFIYTGKAPNLDKMADDLLAAADKYALERLKVMCEDALCSNLSVENAAEILILADLHSADQLKTQAVDFINYHASDVLETSGWKSMVVSHPHLVAEAYRSLASAQCPFLGPPRKRLKQS [Y87C]

Variants of: B1
Details: with ezh2_human EZH2, Q15910
Chain of ezh2_human EZH2, Q15910 (Q15910 whole entry, looked up): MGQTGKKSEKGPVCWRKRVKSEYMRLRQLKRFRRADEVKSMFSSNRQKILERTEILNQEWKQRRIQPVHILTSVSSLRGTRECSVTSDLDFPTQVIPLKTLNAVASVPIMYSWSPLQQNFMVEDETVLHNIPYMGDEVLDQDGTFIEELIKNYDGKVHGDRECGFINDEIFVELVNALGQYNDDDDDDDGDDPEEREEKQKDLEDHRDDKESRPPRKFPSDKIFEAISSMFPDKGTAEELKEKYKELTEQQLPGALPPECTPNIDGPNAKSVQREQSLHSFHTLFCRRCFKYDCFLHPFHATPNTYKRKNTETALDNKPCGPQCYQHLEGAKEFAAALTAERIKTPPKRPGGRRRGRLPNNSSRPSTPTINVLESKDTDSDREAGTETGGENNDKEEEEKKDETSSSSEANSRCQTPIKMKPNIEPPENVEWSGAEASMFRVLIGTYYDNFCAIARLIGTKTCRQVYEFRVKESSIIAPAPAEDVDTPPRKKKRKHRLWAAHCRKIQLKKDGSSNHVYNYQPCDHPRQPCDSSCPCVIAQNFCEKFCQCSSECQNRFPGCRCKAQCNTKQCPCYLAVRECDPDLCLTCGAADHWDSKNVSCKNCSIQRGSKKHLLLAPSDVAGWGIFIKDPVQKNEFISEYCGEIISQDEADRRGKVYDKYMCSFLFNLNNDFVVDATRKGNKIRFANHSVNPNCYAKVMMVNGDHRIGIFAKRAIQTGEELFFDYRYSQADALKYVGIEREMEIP

effect of a mutation on the interaction | Variant
with no effect | MSRVPSPPPPAEMSSGPVAESWCYTQIKVVKFSYMWTINNFSFCREEMGEVIKSSTFSSGANDKLKWCLRVNPKGLDEESKDYLSLCLLLVSCPKSEVRAKFKFSILNAKGEETKAMESQRAYRFVQGKDWGFKKFIRRDFLLDEANGLLPDDKLTLFCEVSVVQDSVNISGQNTMNMVKVPECRLADELGGLWENSRFTDCCLCVAGQEFQAHKAILAARSPVFSAMFEHEMEESKKNRVEINDVEPEVFKEMMCFIYTGKAPNLDKMADDLLAAADKYALERLKVMCEDALCSNLSVENAAEILILADLHSADQLKTQAVDFINYHASDVLETSGWKSMVVSHPHLVAEAYRSLASAQCPFLGPPRKRLKQS [Y87C]

Variants of: B1
Details: with facd2_human FANCD2, Q9BXW9
Chain of facd2_human FANCD2, Q9BXW9 (Q9BXW9 whole entry): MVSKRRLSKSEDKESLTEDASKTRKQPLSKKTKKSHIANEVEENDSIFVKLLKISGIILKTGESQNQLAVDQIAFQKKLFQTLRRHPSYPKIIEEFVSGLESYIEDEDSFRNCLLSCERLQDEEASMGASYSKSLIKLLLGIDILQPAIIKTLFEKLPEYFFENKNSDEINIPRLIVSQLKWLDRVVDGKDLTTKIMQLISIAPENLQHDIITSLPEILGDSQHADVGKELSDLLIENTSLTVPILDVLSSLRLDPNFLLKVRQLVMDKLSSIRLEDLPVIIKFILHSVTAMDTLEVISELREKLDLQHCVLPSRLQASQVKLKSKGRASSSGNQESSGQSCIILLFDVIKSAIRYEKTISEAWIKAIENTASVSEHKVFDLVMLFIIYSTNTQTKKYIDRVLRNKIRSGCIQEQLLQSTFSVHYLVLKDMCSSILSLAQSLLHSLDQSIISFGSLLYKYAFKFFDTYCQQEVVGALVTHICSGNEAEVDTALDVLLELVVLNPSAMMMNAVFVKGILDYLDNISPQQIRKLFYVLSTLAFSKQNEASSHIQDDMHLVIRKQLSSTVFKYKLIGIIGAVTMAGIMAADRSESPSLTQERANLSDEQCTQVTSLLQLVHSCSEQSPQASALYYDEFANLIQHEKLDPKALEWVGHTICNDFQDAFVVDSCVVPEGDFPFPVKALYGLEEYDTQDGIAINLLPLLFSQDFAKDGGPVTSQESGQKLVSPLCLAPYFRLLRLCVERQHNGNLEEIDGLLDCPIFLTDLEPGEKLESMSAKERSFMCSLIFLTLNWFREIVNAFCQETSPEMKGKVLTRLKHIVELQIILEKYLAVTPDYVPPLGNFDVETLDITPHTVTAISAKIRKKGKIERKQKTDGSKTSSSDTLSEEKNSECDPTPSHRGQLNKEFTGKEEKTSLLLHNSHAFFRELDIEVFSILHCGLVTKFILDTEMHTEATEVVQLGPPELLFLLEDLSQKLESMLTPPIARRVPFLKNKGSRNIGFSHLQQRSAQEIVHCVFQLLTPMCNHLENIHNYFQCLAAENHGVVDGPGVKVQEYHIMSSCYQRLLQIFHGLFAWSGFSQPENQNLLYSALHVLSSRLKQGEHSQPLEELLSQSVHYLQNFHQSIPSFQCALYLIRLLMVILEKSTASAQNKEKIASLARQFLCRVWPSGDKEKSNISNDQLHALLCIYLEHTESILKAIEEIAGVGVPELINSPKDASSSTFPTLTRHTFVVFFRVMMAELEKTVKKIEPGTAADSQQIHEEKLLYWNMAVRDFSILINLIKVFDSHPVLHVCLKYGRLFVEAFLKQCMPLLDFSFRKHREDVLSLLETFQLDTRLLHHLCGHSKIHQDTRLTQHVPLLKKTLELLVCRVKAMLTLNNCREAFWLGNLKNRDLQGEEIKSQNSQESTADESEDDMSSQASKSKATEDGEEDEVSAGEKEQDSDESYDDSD

effect of a mutation on the interaction | Variant
with no effect | MSRVPSPPPPAEMSSGPVAESWCYTQIKVVKFSYMWTINNFSFCREEMGEVIKSSTFSSGANDKLKWCLRVNPKGLDEESKDYLSLCLLLVSCPKSEVRAKFKFSILNAKGEETKAMESQRAYRFVQGKDWGFKKFIRRDFLLDEANGLLPDDKLTLFCEVSVVQDSVNISGQNTMNMVKVPECRLADELGGLWENSRFTDCCLCVAGQEFQAHKAILAARSPVFSAMFEHEMEESKKNRVEINDVEPEVFKEMMCFIYTGKAPNLDKMADDLLAAADKYALERLKVMCEDALCSNLSVENAAEILILADLHSADQLKTQAVDFINYHASDVLETSGWKSMVVSHPHLVAEAYRSLASAQCPFLGPPRKRLKQS [Y87C]

Variants of: B1
Details: with tnr6_human FAS

effect of a mutation on the interaction | Variant
with no effect | MSRVPSPPPPAEMSSGPVAESWCYTQIKVVKFSYMWTINNFSFCREEMGEVIKSSTFSSGANDKLKWCLRVNPKGLDEESKDYLSLCLLLVSCPKSEVRAKFKFSILNAKGEETKAMESQRAYRFVQGKDWGFKKFIRRDFLLDEANGLLPDDKLTLFCEVSVVQDSVNISGQNTMNMVKVPECRLADELGGLWENSRFTDCCLCVAGQEFQAHKAILAARSPVFSAMFEHEMEESKKNRVEINDVEPEVFKEMMCFIYTGKAPNLDKMADDLLAAADKYALERLKVMCEDALCSNLSVENAAEILILADLHSADQLKTQAVDFINYHASDVLETSGWKSMVVSHPHLVAEAYRSLASAQCPFLGPPRKRLKQS [Y87C]

Variants of: B1
Details: with fgf19_human FGF19, O95750
Chain of fgf19_human FGF19, O95750 (O95750 whole entry): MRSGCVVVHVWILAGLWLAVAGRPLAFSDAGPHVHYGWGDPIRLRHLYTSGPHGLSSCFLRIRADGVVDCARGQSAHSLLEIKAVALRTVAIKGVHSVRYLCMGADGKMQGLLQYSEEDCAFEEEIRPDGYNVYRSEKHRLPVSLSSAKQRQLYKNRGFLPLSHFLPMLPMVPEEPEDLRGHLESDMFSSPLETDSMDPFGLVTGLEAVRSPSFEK

effect of a mutation on the interaction | Variant
with no effect | MSRVPSPPPPAEMSSGPVAESWCYTQIKVVKFSYMWTINNFSFCREEMGEVIKSSTFSSGANDKLKWCLRVNPKGLDEESKDYLSLCLLLVSCPKSEVRAKFKFSILNAKGEETKAMESQRAYRFVQGKDWGFKKFIRRDFLLDEANGLLPDDKLTLFCEVSVVQDSVNISGQNTMNMVKVPECRLADELGGLWENSRFTDCCLCVAGQEFQAHKAILAARSPVFSAMFEHEMEESKKNRVEINDVEPEVFKEMMCFIYTGKAPNLDKMADDLLAAADKYALERLKVMCEDALCSNLSVENAAEILILADLHSADQLKTQAVDFINYHASDVLETSGWKSMVVSHPHLVAEAYRSLASAQCPFLGPPRKRLKQS [Y87C]

Variants of: B1
Details: with fgfp1_human FGFBP1, Q14512

effect of a mutation on the interaction | Variant
with no effect | MSRVPSPPPPAEMSSGPVAESWCYTQIKVVKFSYMWTINNFSFCREEMGEVIKSSTFSSGANDKLKWCLRVNPKGLDEESKDYLSLCLLLVSCPKSEVRAKFKFSILNAKGEETKAMESQRAYRFVQGKDWGFKKFIRRDFLLDEANGLLPDDKLTLFCEVSVVQDSVNISGQNTMNMVKVPECRLADELGGLWENSRFTDCCLCVAGQEFQAHKAILAARSPVFSAMFEHEMEESKKNRVEINDVEPEVFKEMMCFIYTGKAPNLDKMADDLLAAADKYALERLKVMCEDALCSNLSVENAAEILILADLHSADQLKTQAVDFINYHASDVLETSGWKSMVVSHPHLVAEAYRSLASAQCPFLGPPRKRLKQS [Y87C]

Variants of: B1
Details: with fgfr4_human FGFR4, P22455

effect of a mutation on the interaction | Variant
with no effect | MSRVPSPPPPAEMSSGPVAESWCYTQIKVVKFSYMWTINNFSFCREEMGEVIKSSTFSSGANDKLKWCLRVNPKGLDEESKDYLSLCLLLVSCPKSEVRAKFKFSILNAKGEETKAMESQRAYRFVQGKDWGFKKFIRRDFLLDEANGLLPDDKLTLFCEVSVVQDSVNISGQNTMNMVKVPECRLADELGGLWENSRFTDCCLCVAGQEFQAHKAILAARSPVFSAMFEHEMEESKKNRVEINDVEPEVFKEMMCFIYTGKAPNLDKMADDLLAAADKYALERLKVMCEDALCSNLSVENAAEILILADLHSADQLKTQAVDFINYHASDVLETSGWKSMVVSHPHLVAEAYRSLASAQCPFLGPPRKRLKQS [Y87C]

Variants of: B1
Details: with fumh_human FH

effect of a mutation on the interaction | Variant
with no effect | MSRVPSPPPPAEMSSGPVAESWCYTQIKVVKFSYMWTINNFSFCREEMGEVIKSSTFSSGANDKLKWCLRVNPKGLDEESKDYLSLCLLLVSCPKSEVRAKFKFSILNAKGEETKAMESQRAYRFVQGKDWGFKKFIRRDFLLDEANGLLPDDKLTLFCEVSVVQDSVNISGQNTMNMVKVPECRLADELGGLWENSRFTDCCLCVAGQEFQAHKAILAARSPVFSAMFEHEMEESKKNRVEINDVEPEVFKEMMCFIYTGKAPNLDKMADDLLAAADKYALERLKVMCEDALCSNLSVENAAEILILADLHSADQLKTQAVDFINYHASDVLETSGWKSMVVSHPHLVAEAYRSLASAQCPFLGPPRKRLKQS [Y87C]

Variants of: B1
Details: with foxo3_human FOXO3, O43524

effect of a mutation on the interaction | Variant
with no effect | MSRVPSPPPPAEMSSGPVAESWCYTQIKVVKFSYMWTINNFSFCREEMGEVIKSSTFSSGANDKLKWCLRVNPKGLDEESKDYLSLCLLLVSCPKSEVRAKFKFSILNAKGEETKAMESQRAYRFVQGKDWGFKKFIRRDFLLDEANGLLPDDKLTLFCEVSVVQDSVNISGQNTMNMVKVPECRLADELGGLWENSRFTDCCLCVAGQEFQAHKAILAARSPVFSAMFEHEMEESKKNRVEINDVEPEVFKEMMCFIYTGKAPNLDKMADDLLAAADKYALERLKVMCEDALCSNLSVENAAEILILADLHSADQLKTQAVDFINYHASDVLETSGWKSMVVSHPHLVAEAYRSLASAQCPFLGPPRKRLKQS [Y87C]

Variants of: B1
Details: with fzr1_human FZR1, Q9UM11
Chain of fzr1_human FZR1, Q9UM11 (Q9UM11 whole entry): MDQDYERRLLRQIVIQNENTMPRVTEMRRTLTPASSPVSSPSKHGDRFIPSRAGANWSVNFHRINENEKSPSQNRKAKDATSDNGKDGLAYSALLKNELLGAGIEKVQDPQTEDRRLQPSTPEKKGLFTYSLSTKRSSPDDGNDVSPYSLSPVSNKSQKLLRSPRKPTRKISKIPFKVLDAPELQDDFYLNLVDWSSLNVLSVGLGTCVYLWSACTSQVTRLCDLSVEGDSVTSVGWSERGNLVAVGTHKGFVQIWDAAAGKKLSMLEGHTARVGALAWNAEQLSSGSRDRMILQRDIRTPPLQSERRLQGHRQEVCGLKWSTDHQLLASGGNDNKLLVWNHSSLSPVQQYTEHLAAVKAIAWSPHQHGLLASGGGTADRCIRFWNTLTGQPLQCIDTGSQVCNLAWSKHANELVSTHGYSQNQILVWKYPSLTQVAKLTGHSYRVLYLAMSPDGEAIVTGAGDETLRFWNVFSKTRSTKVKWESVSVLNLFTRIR

effect of a mutation on the interaction | Variant
with no effect | MSRVPSPPPPAEMSSGPVAESWCYTQIKVVKFSYMWTINNFSFCREEMGEVIKSSTFSSGANDKLKWCLRVNPKGLDEESKDYLSLCLLLVSCPKSEVRAKFKFSILNAKGEETKAMESQRAYRFVQGKDWGFKKFIRRDFLLDEANGLLPDDKLTLFCEVSVVQDSVNISGQNTMNMVKVPECRLADELGGLWENSRFTDCCLCVAGQEFQAHKAILAARSPVFSAMFEHEMEESKKNRVEINDVEPEVFKEMMCFIYTGKAPNLDKMADDLLAAADKYALERLKVMCEDALCSNLSVENAAEILILADLHSADQLKTQAVDFINYHASDVLETSGWKSMVVSHPHLVAEAYRSLASAQCPFLGPPRKRLKQS [Y87C]

Variants of: B1
Details: with gbra6_human GABRA6, Q16445

effect of a mutation on the interaction | Variant
with no effect | MSRVPSPPPPAEMSSGPVAESWCYTQIKVVKFSYMWTINNFSFCREEMGEVIKSSTFSSGANDKLKWCLRVNPKGLDEESKDYLSLCLLLVSCPKSEVRAKFKFSILNAKGEETKAMESQRAYRFVQGKDWGFKKFIRRDFLLDEANGLLPDDKLTLFCEVSVVQDSVNISGQNTMNMVKVPECRLADELGGLWENSRFTDCCLCVAGQEFQAHKAILAARSPVFSAMFEHEMEESKKNRVEINDVEPEVFKEMMCFIYTGKAPNLDKMADDLLAAADKYALERLKVMCEDALCSNLSVENAAEILILADLHSADQLKTQAVDFINYHASDVLETSGWKSMVVSHPHLVAEAYRSLASAQCPFLGPPRKRLKQS [Y87C]

Variants of: B1
Details: with gata1_human GATA1, P15976
Chain of gata1_human GATA1, P15976 (P15976 whole entry): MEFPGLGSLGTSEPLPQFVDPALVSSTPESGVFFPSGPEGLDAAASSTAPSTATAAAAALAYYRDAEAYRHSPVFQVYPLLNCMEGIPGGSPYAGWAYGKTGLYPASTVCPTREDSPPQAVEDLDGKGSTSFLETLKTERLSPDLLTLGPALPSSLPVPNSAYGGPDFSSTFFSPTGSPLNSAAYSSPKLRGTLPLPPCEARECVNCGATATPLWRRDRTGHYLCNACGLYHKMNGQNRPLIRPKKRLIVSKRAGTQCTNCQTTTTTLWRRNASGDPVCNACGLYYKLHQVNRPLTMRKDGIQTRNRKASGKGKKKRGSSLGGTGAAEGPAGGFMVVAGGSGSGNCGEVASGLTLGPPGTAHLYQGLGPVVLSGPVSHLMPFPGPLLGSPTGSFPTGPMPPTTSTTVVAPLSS

effect of a mutation on the interaction | Variant
with no effect | MSRVPSPPPPAEMSSGPVAESWCYTQIKVVKFSYMWTINNFSFCREEMGEVIKSSTFSSGANDKLKWCLRVNPKGLDEESKDYLSLCLLLVSCPKSEVRAKFKFSILNAKGEETKAMESQRAYRFVQGKDWGFKKFIRRDFLLDEANGLLPDDKLTLFCEVSVVQDSVNISGQNTMNMVKVPECRLADELGGLWENSRFTDCCLCVAGQEFQAHKAILAARSPVFSAMFEHEMEESKKNRVEINDVEPEVFKEMMCFIYTGKAPNLDKMADDLLAAADKYALERLKVMCEDALCSNLSVENAAEILILADLHSADQLKTQAVDFINYHASDVLETSGWKSMVVSHPHLVAEAYRSLASAQCPFLGPPRKRLKQS [Y87C]

Variants of: B1
Details: with p66b_human GATAD2B

effect of a mutation on the interaction | Variant
with no effect | MSRVPSPPPPAEMSSGPVAESWCYTQIKVVKFSYMWTINNFSFCREEMGEVIKSSTFSSGANDKLKWCLRVNPKGLDEESKDYLSLCLLLVSCPKSEVRAKFKFSILNAKGEETKAMESQRAYRFVQGKDWGFKKFIRRDFLLDEANGLLPDDKLTLFCEVSVVQDSVNISGQNTMNMVKVPECRLADELGGLWENSRFTDCCLCVAGQEFQAHKAILAARSPVFSAMFEHEMEESKKNRVEINDVEPEVFKEMMCFIYTGKAPNLDKMADDLLAAADKYALERLKVMCEDALCSNLSVENAAEILILADLHSADQLKTQAVDFINYHASDVLETSGWKSMVVSHPHLVAEAYRSLASAQCPFLGPPRKRLKQS [Y87C]

Variants of: B1
Details: with gna11_human GNA11, P29992
Chain of gna11_human GNA11, P29992 (P29992 whole entry): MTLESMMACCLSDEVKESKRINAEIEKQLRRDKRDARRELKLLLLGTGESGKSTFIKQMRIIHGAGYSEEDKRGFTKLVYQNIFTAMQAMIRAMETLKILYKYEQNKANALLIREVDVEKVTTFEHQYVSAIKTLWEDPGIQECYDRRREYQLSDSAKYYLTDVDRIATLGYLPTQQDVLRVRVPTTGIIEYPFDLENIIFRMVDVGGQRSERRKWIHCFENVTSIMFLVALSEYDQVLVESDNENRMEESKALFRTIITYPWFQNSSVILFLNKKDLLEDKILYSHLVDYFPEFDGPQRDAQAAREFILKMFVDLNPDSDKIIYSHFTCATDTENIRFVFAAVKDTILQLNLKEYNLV

effect of a mutation on the interaction | Variant
with no effect | MSRVPSPPPPAEMSSGPVAESWCYTQIKVVKFSYMWTINNFSFCREEMGEVIKSSTFSSGANDKLKWCLRVNPKGLDEESKDYLSLCLLLVSCPKSEVRAKFKFSILNAKGEETKAMESQRAYRFVQGKDWGFKKFIRRDFLLDEANGLLPDDKLTLFCEVSVVQDSVNISGQNTMNMVKVPECRLADELGGLWENSRFTDCCLCVAGQEFQAHKAILAARSPVFSAMFEHEMEESKKNRVEINDVEPEVFKEMMCFIYTGKAPNLDKMADDLLAAADKYALERLKVMCEDALCSNLSVENAAEILILADLHSADQLKTQAVDFINYHASDVLETSGWKSMVVSHPHLVAEAYRSLASAQCPFLGPPRKRLKQS [Y87C]

Variants of: B1
Details: with gna13_human GNA13, Q14344
Chain of gna13_human GNA13, Q14344 (Q14344 whole entry): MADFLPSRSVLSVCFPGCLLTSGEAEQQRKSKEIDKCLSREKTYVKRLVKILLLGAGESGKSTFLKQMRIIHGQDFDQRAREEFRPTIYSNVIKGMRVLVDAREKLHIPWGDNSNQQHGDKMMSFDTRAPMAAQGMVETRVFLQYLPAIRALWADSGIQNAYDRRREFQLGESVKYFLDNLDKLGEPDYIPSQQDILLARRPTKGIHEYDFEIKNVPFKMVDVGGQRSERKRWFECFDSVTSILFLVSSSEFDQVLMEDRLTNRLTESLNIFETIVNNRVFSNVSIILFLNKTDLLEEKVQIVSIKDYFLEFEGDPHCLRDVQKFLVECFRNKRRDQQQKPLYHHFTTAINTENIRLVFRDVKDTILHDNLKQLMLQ

effect of a mutation on the interaction | Variant
with no effect | MSRVPSPPPPAEMSSGPVAESWCYTQIKVVKFSYMWTINNFSFCREEMGEVIKSSTFSSGANDKLKWCLRVNPKGLDEESKDYLSLCLLLVSCPKSEVRAKFKFSILNAKGEETKAMESQRAYRFVQGKDWGFKKFIRRDFLLDEANGLLPDDKLTLFCEVSVVQDSVNISGQNTMNMVKVPECRLADELGGLWENSRFTDCCLCVAGQEFQAHKAILAARSPVFSAMFEHEMEESKKNRVEINDVEPEVFKEMMCFIYTGKAPNLDKMADDLLAAADKYALERLKVMCEDALCSNLSVENAAEILILADLHSADQLKTQAVDFINYHASDVLETSGWKSMVVSHPHLVAEAYRSLASAQCPFLGPPRKRLKQS [Y87C]
